Measured values: the Human Domainome abundance scans (Beltran et al. 2025)

B1: Intersectin-2, residues 1129 to 1183; numbered along this chain, Q9NZM3 (parent)
chain: VCQVIAMYDYAANNEDELSFSKGQLINVMNKDDPDWWQGEINGVTGLFPSNYVKM

Variants of: B1
Test: abundance fitness (aPCA) (normalised: wild type 0, dead -1); higher = more abundant; growth selection in yeast, the domain comes from the species named
Conditions: Homo sapiens

Abundance fitness of substitutions, site by site:
D9: M -0.177 | W -0.383 | E -0.117 | F -0.364 | Q -0.133 | H -0.025 | S -0.069 | I -0.594 | A 0.019 | T -0.084 | P -0.098 | N -0.039 | G -0.061 | V -0.38 | C -0.189 | L -0.571 | K -0.189 | R -0.131 | Y -0.371
Q3: P -0.116 | F 0.027 | K 0.002 | C -0.066 | E 0.081 | M -0.053 | A -0.07 | I -0.006 | S 0.012 | D -0.19 | T -0.047 | L -0.134 | W -0.076 | Y -0.029 | V -0.042 | R -0.13 | N -0.169
V4: D -0.511 | N -0.688 | Y 0.032 | E -0.405 | T -0.079 | S -0.064 | I -0.478 | F -0.004 | W -0.079 | R -0.458 | G -0.041 | H -0.205 | K -0.62 | L -0.297 | Q -0.349 | A -0.027
C2: W -0.122 | S -0.006 | M -0.13 | P -0.108 | Q -0.107 | A -0.116 | G -0.099 | T -0.126 | Y 0.022 | D -0.041 | F 0.023 | N 0.147 | I -0.116 | E -0.3 | L -0.223
I5: W -0.056 | Y -0.062 | S -0.134 | C -0.077 | P -0.531 | R -0.147 | A -0.121 | V -0.015 | K -0.173 | Q -0.085 | N -0.186 | H -0.188 | T 0.023 | L -0.132 | M -0.144 | E -0.062 | D -0.164 | F -0.022 | G -0.457
A12: M -0.129 | H -0.221 | D -0.503 | C -0.115 | L -0.578 | I -0.469 | P -0.144 | G -0.068 | N 0.052 | E -0.172 | K -0.012 | F -0.663
A6: T 0.026 | R -0.883 | C -0.154 | Y -0.927 | L -1.02 | P -0.585 | I -0.988 | F -1.03 | D -0.93 | V -0.576 | G -0.163 | Q -0.966 | W -1.02 | N -0.928 | S -0.057 | H -0.923
Y8: P -0.787 | M -0.011 | G -0.063 | Q -0.084 | A -0.002 | W -0.052 | R 0.012 | K 0.074 | L -0.005 | C -0.011 | V -0.045 | N 0.011 | F 0.09 | T -0.122 | D -0.197 | E -0.002 | H -0.162 | S 0.001
V1: Y -0.453 | S -0.21 | K 0.089 | R -0.228 | M -0.178 | W -0.391 | D -0.043 | T 0.107 | N -0.247 | C -0.307 | A -0.27 | I 0.077 | F 0.04 | E -0.054 | L -0.206 | P -0.652
A11: V -0.072 | E 0.025 | K 0.013 | T -0.041 | L -0.064 | P -0.069 | Q -0.003 | G -0.03 | W -0.117 | S -0.007 | R -0.01 | H 0.042 | C -0.048 | Y -0.111 | D 0.007 | F -0.055 | N -0.016 | M -0.053
M7: D 0.007
